Measured values published in US20190169308A1 (ALLIGATOR BIOSCIENCE, published 2019).

T1: recombinant human OX40 (R&D #1493-CD) (human, UniProt P43489 29-216, limits assumed)
T1 sequence (looked up): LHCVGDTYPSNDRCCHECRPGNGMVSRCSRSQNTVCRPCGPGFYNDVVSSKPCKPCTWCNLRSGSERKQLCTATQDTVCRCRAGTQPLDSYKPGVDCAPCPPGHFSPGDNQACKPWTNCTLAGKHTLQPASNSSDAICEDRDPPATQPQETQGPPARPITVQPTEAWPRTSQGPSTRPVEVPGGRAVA


How the values were obtained:
[1] = target: T2, CD40-Fc (Ancell #504-820) (human, UniProt P25942 21-193); experiment: ELISA, coated CD40-Fc
T2 construct: not shown: Fc part, bought reagent, not described
Experimental: (§1) ELISA plates (Greiner #655074) were coated with 50 μl/well of recombinant human OX40 (R&D #1493-CD), CD40-Fc (Ancell #504-820) or CD137 (R&D #838-4B) diluted to a final concentration of 0.5 μg/ml in PBS for 1h at 37° C. or overnight at 4° C. Plates were washed with PBS+0.05% TWEEN20 (PBST), followed by block with PBST+1% bovine serum albumin (BSA). Antibody samples were prepared as serial 1/10 dilutions from 10-0.01 μg/ml in PBST+1% BSA and incubated for 1 h in room temperature, followed by detection using a horse radish peroxidase-conjugated anti-human kappa light chain antibody (AbD Serotec #STAR127P) and developed using SuperSignal ELISA Pico Chemiluminescent substrate (Pierce ThermoScientific #37069).

[2] = target: T1, recombinant human OX40 (R&D #1493-CD); experiment: ELISA, coated OX40
Experimental: as §1

[3] = target: T3, human/mouse CD137 chimera 1550; experiment: flow cytometry, 293-F cells with CD137 chimera
T3 construct: on transfected FreeStyle 293-F cells
Experimental: (§2) The ability of each antibody to bind to a panel of human/mouse CD137 chimeras expressed on the surface of transfected cells was analyzed by flow cytometry.
(§3) The chimeras were designed by exchanging domains or modules of the human CD137 with the corresponding mouse domain (FIG. 7). Genes of CD137 human/mouse chimeras were synthesized (GenScript) and constructs cloned into pcDNA3.1 vector (Invitrogen) and transiently transfected into FreeStyle 293-F cells (Invitrogen). The transfected cells were incubated with CD137 antibodies and control antibodies, followed by incubation with anti-human IgG-PE (Jackson Immunoresearch) for detection and analyzed with FACS Verse (BD Biosciences). Binding to the different chimeric constructs was calculated as relative MFI compared to the binding of the isotype control, followed by normalization to the full-length human CD137 construct to minimize the effect of affinity differences between individual antibodies.

[4] = target: T4, human/mouse CD137 chimera 1551; experiment: flow cytometry, 293-F cells with CD137 chimera
T4 construct: on transfected FreeStyle 293-F cells
Experimental: as §2, §3

[5] = target: T5, human/mouse CD137 chimera 1552; experiment: flow cytometry, 293-F cells with CD137 chimera
T5 construct: on transfected FreeStyle 293-F cells
Experimental: as §2, §3

[6] = target: T6, human/mouse CD137 chimera 1553; experiment: flow cytometry, 293-F cells with CD137 chimera
T6 construct: on transfected FreeStyle 293-F cells
Experimental: as §2, §3

[7] = target: T7, human/mouse CD137 chimera 1554; experiment: flow cytometry, 293-F cells with CD137 chimera
T7 construct: on transfected FreeStyle 293-F cells
Experimental: as §2, §3

[8] = target: T8, human/mouse CD137 chimera 1555; experiment: flow cytometry, 293-F cells with CD137 chimera
T8 construct: on transfected FreeStyle 293-F cells
Experimental: as §2, §3

T2 sequence (P25942 21-193 limits assumed): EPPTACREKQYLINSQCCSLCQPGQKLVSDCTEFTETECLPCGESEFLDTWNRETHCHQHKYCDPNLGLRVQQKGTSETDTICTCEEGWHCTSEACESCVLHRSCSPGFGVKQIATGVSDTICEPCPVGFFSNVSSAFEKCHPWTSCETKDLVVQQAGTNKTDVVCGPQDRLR

| binding result [1] | binding result [2] | MFI/isotype control normalized to full-length human CD137 [3] | MFI/isotype control normalized to full-length human CD137 [4] | MFI/isotype control normalized to full-length human CD137 [5] | MFI/isotype control normalized to full-length human CD137 [6] | MFI/isotype control normalized to full-length human CD137 [7] | MFI/isotype control normalized to full-length human CD137 [8] | Binder |
| --- | --- | --- | --- | --- | --- | --- | --- | --- |
| no binding (tested: 10 µg/ml) | no binding (tested: 10 µg/ml) | 0.17 | 0.33 | 0.18 | 0.17 | 0.17 | 0.32 | 1620/1621 (antibody, V domains shown) VH: EVQLLESGGGLVQPGGSLRLSCAASGFTFSGYYMYWVRQAPGKGLEWVSGISSSGSYTYYADSVKGRFTISRDNSKNTLYLQMNSLRAEDTAVYYCARSVGPYFDYWGQGTLVTVSS VL: DIQMTQSPSSLSASVGDRVTITCRASQSISSYLNWYQQKPGKAPKLLIYAASSLQSGVPSRFSGSGSGTDFTLTISSLQPEDFATYYCQQGVGPYTFGQGTKLEIK |
| no binding (tested: 10 µg/ml) | no binding (tested: 10 µg/ml) | 0.07 | 0.11 | 0.13 | 0.85 | 0.73 | 0.28 | 1204/1205 (antibody, V domains shown) VH: EVQLLESGGGLVQPGGSLRLSCAASGFTFSSYYMGWVRQAPGKGLEWVSGIGSYYGYTGYADSVKGRFTISRDNSKNTLYLQMNSLRAEDTAVYYCARAYYDYNYYYAYFDYWGQGTLVTVSS VL: DIQMTQSPSSLSASVGDRVTITCRASQSISSYLNWYQQKPGKAPKLLIYAASSLQSGVPSRFSGSGSGTDFTLTISSLQPEDFATYYCQQSVPHYPFTFGQGTKLEIK |
| no binding (tested: 10 µg/ml) | no binding (tested: 10 µg/ml) | 0.1 | 0.11 | 0.11 | 0.14 | 0.12 | 0.29 | 1626/1627 (antibody, V domains shown) VH: EVQLLESGGGLVQPGGSLRLSCAASGFTFGGYSMYWVRQAPGKGLEWVSSIGGYYYSTYYADSVKGRFTISRDNSKNTLYLQMNSLRAEDTAVYYCARSYYGSIDYWGQGTLVTVSS VL: DIQMTQSPSSLSASVGDRVTITCRASQSISSYLNWYQQKPGKAPKLLIYAASSLQSGVPSRFSGSGSGTDFTLTISSLQPEDFATYYCQQGTGYGPLTFGQGTKLEIK |
